Sequences and labels used below:
B1: Heparin cofactor 2 (protein)
chain: GSKGPLDQLEKGGETAQSADPQWEQLNNKNLSMPLLPADFHKENTVTNDWIPEGEEDDDYLDLEKIFSEDDDYIDIVDSLSVSPTDSDVSAGNILQLFHGKSRIQRLNILNAKFAFNLYRVLKDQVNTFDNIFIAPVGISTAMGMISLGLKGETHEQVHSILHFKDFVNASSKYEITTIHNLFRKLTHRLFRRNFGYTLRSVNDLYIQKQFPILLDFKTKVREYYFAEAQIADFSDPAFISKTNNHIMKLTKGLIKDALENIDPATQMMILNCIYFKGSWVNKFPVEMTHNHNFRLNEREVVKVSMMQTKGNFLAANDQELDCDILQLEYVGGISMLIVVPHKMSGMKTLEAQLTPRVVERWQKSMTNRTREVLLPKFKLEKNYNLVESLKLMGIRMLFDKNGNMAGISDQRIAIDLFKHQGTITVNEEGTQATTVTTVGFMPLSTQVRFTVDRPFLFLIYEHRTSCLLFMGRVANPSRS
B2: Complement factor I (protein)
chain: KVTYTSQEDLVEKKCLAKKYTHLSCDKVFCQPWQRCIEGTCVCKLPYQCPKNGTAVCATNRRSFPTYCQQKSLECLHPGTKFLNNGTCTAEGKFSVSLKHGNTDSEGIVEVKLVDQDKTMFICKSSWSMREANVACLDLGFQQGADTQRRFKLSDLSINSTECLHVHCRGLETSLAECTFTKRRTMGYQDFADVVCYTQKADSPMDDFFQCVNGKYISQMKACDGINDCGDQSDELCCKACQGKGFHCKSGVCIPSQYQCNGEVDCITGEDEVGCAGFASVTQEETEILTADMDAERRRIKSLLPKLSCGVKNRMHIRRKRIVGGKRAQLGDLPWQVAIKDASGITCGGIYIGGCWILTAAHCLRASKTHRYQIWTTVVDWIHPDLKRIVIEYVDRIIFHENYNAGTYQNDIALIEMKKDGNKKDCELPRSIPACVPWSPYLFQPNDTCIVSGWGREKDNERVFSLQWGEVKLISNCSKFYGNRFYEKEMECAGTYDGSIDACKGDSGGPLVCMDANNVTYVWGVVSWGENCGKPEFPGVYTKVANYFDWISYHVGRPFISQYNV
B3: Complement C1r subcomponent (protein)
chain: SIPIPQKLFGEVTSPLFPKPYPNNFETTTVITVPTGYRVKLVFQQFDLEPSEGCFYDYVKISADKKSLGRFCGQLGSPLGNPPGKKEFMSQGNKMLLTFHTDFSNEENGTIMFYKGFLAYYQAVDLDECASRSKSGEEDPQPQCQHLCHNYVGGYFCSCRPGYELQEDTHSCQAECSSELYTEASGYISSLEYPRSYPPDLRCNYSIRVERGLTLHLKFLEPFDIDDHQQVHCPYDQLQIYANGKNIGEFCGKQRPPDLDTSSNAVDLLFFTDESGDSRGWKLRYTTEIIKCPQPKTLDEFTIIQNLQPQYQFRDYFIATCKQGYQLIEGNQVLHSFTAVCQDDGTWHRAMPRCKIKDCGQPRNLPNGDFRYTTTMGVNTYKARIQYYCHEPYYKMQTRAGSRESEQGVYTCTAQGIWKNEQKGEKIPRCLPVCGKPVNPVEQRQRIIGGQKAKMGNFPWQVFTNIHGRGGGALLGDRWILTAAHTLYPKEHEAQSNASLDVFLGHTNVEELMKLGNHPIRRVSVHPDYRQDESYNFEGDIALLELENSVTLGPNLLPICLPDNDTFYDLGLMGYVSGFGVMEEKIAHDLRFVRLPVANPQACENWLRGKNRMDVFSQNMFCAGHPSLKQDACQGDSGGVFAVRDPNTDRWVATGIVSWGIGCSRGYGFYTKVLNYVDWIKKEMEEED

The target in the first test is T1, alpha-synuclein plaque particles (Homo sapiens, UniProt P37840).
T1 construct: 140 amino acids polypeptide
Briefly: Mass spectroscopy proteomics, semi-quantitative binding affinity of serum proteins (plaqueproteome, Table 2). The following applies: higher number = stronger affinity. On the procedure:
To prepare oligomers/aggregates of human alpha-synuclein (140 amino acids polypeptide), 1 mg of the recombinant alpha-synuclein protein was suspended in 1 mL of PBS and the sample was incubated at 37° C. for 2 hrs. After incubation, all the samples were centrifuged for 5 min. at 5000 rpm to remove precipitate, if any, and the supernatant containing oligomers/aggregates were used in vitro plaque particles formation assay. For detecting alpha-synuclein plaque particles Thioflavin S (Ex/Em=430 nm/550 nm) amyloid binding fluorescent dye (10 μg) was used.
Similarly, to isolate alpha-synuclein plaque particles, diluted plasma or serum samples obtained from AD subjects were used for incubation with alpha-synuclein plaque oligomers/aggregates. Each assay was performed in 1 mL reaction (800 μL of 50% plasma or serum) and 200 μL (30 μg) of the alpha-synuclein aggregates and the mixtures were incubated at 37° C. for 1 hr. To the mixture Thioflavin S dye (120 μg) was added and the sample was incubated for additional 30 min at 37° C. After the incubation, the mixture was directly used for sample acquisition using flow cytometer (FACS ARIA II, BD Biosciences, San Jose, Calif.). After initial detection of alpha-synuclein plaque particles, gates were drawn in the acquisition blot to separately sort and isolate fluorescently labeled alpha-synuclein particles.
(§1) For preparing trypsin digested peptide sequences, the isolated plaque particles were centrifuged at 10000 rpm for 5 min and the pellet containing plaque particles was resuspended in 100 μl PBS buffer. Stock solutions of digestion buffer (Ammonium Biocarbonate 50 mM), reducing buffer (DDT 100 mM) and alkylation buffer (lodoaceamide 100 mM) were prepared and stored at −20° C. for up to two months. For trypsin digestion, 100 μl of each plaque particles (2000 of Abeta-42, cholesterol, Tau and alpha-synuclein) were precipitated using cold acetone −80° C. by adding 4X's the volume. The samples were placed on dry ice for 10 min with intermittent vortex. Next, the samples were centrifuged at 4° C. at 10000 G for 10 min. Top layer of acetone was carefully removed from the tube with care not to disturb the plaque particles pellet. The samples were speed-vac for 10 min to ensure all acetone has been boiled away. The plaque particles pellet were reconstituted with 15 μl 8M Urea 100 mM Ammonium bicarbonate stock and 20 μl protease max solution. The protease max solution (Promega, Madison, Wis.) was prepared from stock by adding 60 μl 50 mM Ammonium bicarbonate and used for 3 solution digests (20 μl each). […] The tubes were incubated at 55° C. for 30 minutes. The tubes were then removed and brought to the room temperature followed by addition of 3.2 μl of 1M acrylamide and incubated at room temperature for 30 minutes. To the sample, 63 μL of 50 mM Ammonium bicarbonate was added for a final volume of 98 μl and 2 μl of trypsin (10 μg, Trypsin/Lys C Mix). After mixing the solution with pipet the samples were incubated at 37° C. overnight. After the overnight digest, the tryptic digest were quenched and acidified by adding 10 μl of 50% formic acid/water stock dilution. The samples were centrifuged at 10000 G for 2 minutes and purified using stage tip and used for MS/Mass analysis.
(§2) All MS/MS samples were analyzed using Sequest (Thermo Fisher Scientific, San Jose, Calif., USA; version 1.0). Sequest was set up to search the SUMS_uniprot_Human database (35847 entries) assuming the digestion enzyme strict trypsin. Sequest was searched with a fragment ion mass tolerance of 1.00 Da and a parent ion tolerance of 20 PPM. Propionamide of cysteine was specified in Sequest as a fixed modification. Oxidation of methionine and phospho of serine, threonine and tyrosine were specified in Sequest as variable modifications.
Scaffold (version Scaffold_4.2.1, Proteome Software Inc., Portland, Oreg.) was used to validate MS/MS based peptide and protein identifications.
For the molecule B1, the “Semi-quantitative analysis of proteins binding to different plaque particles: Synuclein” value is given as 1.

B2: the “Semi-quantitative analysis of proteins binding to different plaque particles: Synuclein” value is recorded as 4.

For the molecule B3, the “Semi-quantitative analysis of proteins binding to different plaque particles: Synuclein” value was 3.

The test system of a further test is Tau plaque particles. Described as above. Set-up: species or system human. The following applies: higher number = stronger affinity. The method, then: For Tau-74 (74-102) (Exon 3/Insert 2 domain) preparation, 1 mg of Tau-74 was suspended in 1 mL of PBS and the sample was incubated at 37° C. for 2 hrs. Similarly for preparing Tau-275 (275-305) (Repeat 2 domain) 1 mg of the peptide was suspended in 1 mL of PBS and the sample was incubated at 37° C. for 2 hrs. After incubation, all the samples were centrifuged for 5 min. at 5000 rpm to remove precipitate, if any, and the supernatant containing oligomers/aggregates were used for in vitro amyloid plaque particles formation assay. For detecting Tau plaque particles, Thioflavin S (Ex/Em=430 nm/550 nm) amyloid binding fluorescent dye (10 μg) was used in the assay.
Next, to isolate Tau plaque particles, as performed for Abeta-42 and Abeta-28 plaque particles isolation, diluted serum samples were used for incubation separately with Tau-45, Tau-74 and Tau-275 oligomers/aggregates. Each assay was performed in 1 mL reaction (800 μL of 50% plasma or serum) and 200 μL (30 μg) of each Tau aggregates and the mixtures were incubated at 37° C. for 1 hr. To the each mixture Thioflavin S dye (120 μg) was added and the sample was incubated for additional 30 min at 37° C. After the incubation, each sample was directly used for sample acquisition using flow cytometer (FACS ARIA II, BD Biosciences, San Jose, Calif.). After initial detection of Tau plaque particles, gates were drawn in the acquisition blot to separately sort and isolate fluorescently labeled Tau plaque particles.
as §1, §2
For B1, the “Semi-quantitative analysis of proteins binding to different plaque particles: Tau” value was found to be 6.

In the case of B2, the “Semi-quantitative analysis of proteins binding to different plaque particles: Tau” value was 3.

On to B3, for which the “Semi-quantitative analysis of proteins binding to different plaque particles: Tau” value was 4.

A further test relates to Low density cholesterol (Chl small) plaque particles. Described as above. More on the design: species or system human. The following applies: higher number = stronger affinity. The method, then: (§3) The goal was to isolate plaque particles synthesized in the bio-fluids in a relatively pure form to enable their subsequent use for identification of components that contribute to the plaque formation. In order to isolate cholesterol plaque particles, the plasma or serum samples obtained from atherosclerotic subjects were first centrifuged at 5,000 rpm for 5 min and the supernatants were transferred to new centrifuge tubes. Next, the supernatants were diluted in PBS to make 50% of the serum and used for incubation with cholesterol oligomers/aggregates. Each assay was performed in 1 mL reaction (800 μL of 50% plasma or serum) and 200 μL (30 μg) of the Cholesterol aggregates and the mixtures were incubated at 37° C. for 1 hr After the incubation, the mixture was directly used for sample acquisition using flow cytometer (FACS ARIA II, BD Biosciences, San Jose, Calif.). […] In order to isolate these fractions, three sets of gates were drawn in the acquisition blot to separately sort and isolate High density or high complex cholesterol particles, Low density or low complex cholesterol particles and both High and low density cholesterol particles together.
as §1, §2
(§4) Scaffold (version Scaffold_4.2.1, Proteome Software Inc., Portland, Oreg.) was used to validate MS/MS based peptide and protein identifications. […] Protein probabilities were assigned by the Protein Prophet algorithm (Nesvizhskii, Al et al 2003).
B1: the “Semi-quantitative analysis of proteins binding to different plaque particles: Chl small” value was found to be 1.

In the case of B2, the “Semi-quantitative analysis of proteins binding to different plaque particles: Chl small” value was 3.

As to B3, the “Semi-quantitative analysis of proteins binding to different plaque particles: Chl small” value is reported as 4.

Another test concerns High Density cholesterol (Chl Large) plaque particles. Described as above. To be noted: higher number = stronger affinity. More on the design: species or system human. The method, then: as §3, §1, §2, §4
Regarding B1, the “Semi-quantitative analysis of proteins binding to different plaque particles: Chl Large” value came to 3.

Regarding B2, the “Semi-quantitative analysis of proteins binding to different plaque particles: Chl Large” value is on record as 4.

As for B3, the “Semi-quantitative analysis of proteins binding to different plaque particles: Chl Large” value is listed as 2.

Another test addresses T2, Abeta-42 plaque particles (Homo sapiens, UniProt P05067).
T2 construct: Abeta 1-42
The test is described as above. The following applies: higher number = stronger affinity. The method, then: Next to isolate serum derived Abeta-42 plaque particles, the plasma or serum samples obtained from AD subjects were first centrifuged at 5,000 rpm for 5 min and the supernatants were transferred to new centrifuge tubes. Next, the supernatants were diluted in PBS to make 50% of the serum and plasma samples and used for incubation with Abeta-42 plaque oligomers/aggregates. Each assay was performed in 1 mL reaction (800 μL of 50% plasma or serum) and 200 μL (30 μg) of the Abeta-42 aggregates and the mixtures were incubated at 37° C. for 1 hr. To the mixture Thioflavin S dye (120 μg) was added and the sample was incubated for additional 30 min at 37° C. After the incubation, the mixture was directly used for sample acquisition using flow cytometer (FACS ARIA II, BD Biosciences, San Jose, Calif.). After initial detection of Abeta-42 plaque particles in the acquisition blot, gates were drawn in fluorescent dot blot to separately sort and isolate fluorescently labeled Abeta-42 particles.
as §1, §2
Scaffold (version Scaffold_4.2.1, Proteome Software Inc., Portland, Oreg.) was used to validate MS/MS based peptide and protein identifications. […] Protein probabilities were assigned by the Protein Prophet algorithm (Nesvizhskii, Al et al 2003). […] Proteins sharing significant peptide evidence were grouped into clusters. Proteins were annotated with GO terms from NCBI (downloaded Jan. 17, 2014).
Regarding B1, the “Semi-quantitative analysis of proteins binding to different plaque particles: Abeta-42” value was found to be 0.

Regarding B2, the “Semi-quantitative analysis of proteins binding to different plaque particles: Abeta-42” value was 0.

With B3, the “Semi-quantitative analysis of proteins binding to different plaque particles: Abeta-42” value is given as 0.

The record behind these values is US9618524B2, “Method, composition, isolation and identification of a plaque particle and related biomarker” (Plaxgen Inc., priority 2012, dated 2017).
